Test results published in publication PMC10135883, “Structural Basis of the Interaction between Human Axin2 and SIAH1 in the Wnt/β-Catenin Signaling Pathway” (Biomolecules, 2023).
Values belong to the molecule of their own block, whether it stands above or below them.

Key:
[1] = molecular target: SIAH1-SBD (substrate-binding domain of E3 ubiquitin-protein ligase SIAH1, residues 89-282) (human) (UniProt Q8IUQ4); experiment: ITC; ITC200, 25 °C; 20 mM Tris-HCl pH8.0, 100 mM NaCl; 330 μM Axin2 peptide injected into 30 μM SIAH1; single binding site model
[2] = molecular target: SIAH1-SBD (89-282) F165A (human) (UniProt Q8IUQ4); experiment: as above
[3] = molecular target: T1, SIAH1-SBD (substrate-binding domain of E3 ubiquitin-protein ligase SIAH1, residues 89-282) (human, UniProt Q8IUQ4-1 89-282); experiment: crystal structure; SIAH1-SBD mixed with Axin2 (356–376) at a molar ratio of 1:5; 0.1 M Bis-tris propane pH8.4, 24% PEG6000, 4 °C; 2.53 Å; settings: both partners purified
T1 construct: Cloned from HeLa cDNA into pET28a with a TEV site at the N-terminal; The PDB code is printed as 8HEO in the results and as 8HE0 in the data availability statement; also called SIAH1-SBD_(89–282); SBD of SIAH1; source: E. coli BL21(DE3), purified (Ni-NTA, His-tag cleavage by TEV, Ni-NTA, HiTrap Q, Superdex 200); not shown: His tag, N-terminal, cleaved
T1 sequence (looked up): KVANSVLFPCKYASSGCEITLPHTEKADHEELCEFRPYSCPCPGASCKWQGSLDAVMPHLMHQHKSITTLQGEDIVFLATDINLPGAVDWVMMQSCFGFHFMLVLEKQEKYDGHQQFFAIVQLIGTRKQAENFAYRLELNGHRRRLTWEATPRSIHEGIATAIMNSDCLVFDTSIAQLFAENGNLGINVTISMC

[4] = molecular target: T2, SIAH1-SBD (substrate-binding domain of E3 ubiquitin-protein ligase SIAH1, residues 89-282) (human, UniProt Q8IUQ4-1 89-282); experiment: ITC
T2 chain: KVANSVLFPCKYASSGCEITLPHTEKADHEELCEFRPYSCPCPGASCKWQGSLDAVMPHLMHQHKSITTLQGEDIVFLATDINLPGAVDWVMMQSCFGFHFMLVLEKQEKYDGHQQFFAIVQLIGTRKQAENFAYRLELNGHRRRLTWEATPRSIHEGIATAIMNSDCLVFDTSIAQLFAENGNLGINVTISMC

[5] = molecular target: T3, wt Axin2_(356–368) peptide used in ITC, Q9Y2T1; experiment: ITC; settings: chain shown with the change;; parent: 8.77
T3 chain: HRLPKEMTPVEPA

[6] = molecular target: T1, SIAH1-SBD (substrate-binding domain of …); experiment: BLI; Octet Red96; GST-Axin2-GBD or its deletion loaded onto GST biosensors, quenched with GST; dipped into SIAH1-SBD at 0.03-30 μM; free-GST biosensors as controls; settings: both partners purified

Molecule: Axin2_(356–368) E366A (from UniProt Q9Y2T1 356-368) (peptide)
Kd [1]: 97.1 µM

Molecule: HRLPKEMAPVEPATFAAELIS [Axin2_(356–368) single mutant T363A]
Kd [4]: 8.7 µM

B2: SIAH1-SBD (substrate-binding domain of E3 ubiquitin-protein ligase SIAH1, residues 89-282), Q8IUQ4-1 Q159A (protein)
chain: KVANSVLFPCKYASSGCEITLPHTEKADHEELCEFRPYSCPCPGASCKWQGSLDAVMPHLMHQHKSITTLAGEDIVFLATDINLPGAVDWVMMQSCFGFHFMLVLEKQEKYDGHQQFFAIVQLIGTRKQAENFAYRLELNGHRRRLTWEATPRSIHEGIATAIMNSDCLVFDTSIAQLFAENGNLGINVTISMC
Kd [5]: 9.1 µM

B4: GST-Axin2-GBD (GSK3 binding domain of Axin2, residues 334-432, with a GST-tag) (domain or fragment, human, UniProt Q9Y2T1 334-432, looked up)
chain: QREMHRSVKANGQVSLPHFPRTHRLPKEMTPVEPATFAAELISRLEKLKLELESRHSLEERLQQIREDEEREGSELTLNSREGAPTQHPLSLLPSGSYE
notes: pGEX-6p-1 construct; also called Axin-GDB; source: E. coli BL21 (DE3), purified (glutathione sepharose 4B); not shown: GST, N-terminal, kept
Kd [6]: ~2.2 µM

Next, values leading:

Kd [1]: 8.77 µM
stoichiometry N [1]: 1
Kd [2]: 14.4 µM
Molecule: wt Axin2_(356–368) peptide used in ITC (from UniProt Q9Y2T1 356-368)

binding result [3]: binds
B1: Axin2 (residues 356–376) (peptide, UniProt Q9Y2T1 356-376, looked up)
chain: HRLPKEMTPVEPATFAAELIS
notes: human Axin2 (GenBank NM_004655.4), residues 356-376 within the GBD; also called Axin2_(356–376); Axin2 peptide; source: E. coli BL21 (DE3), purified (glutathione sepharose 4B, GST removed by PreScission protease, Superdex 75); not shown: GST, N-terminal, cleaved

Kd [5]: 10.5 µM
B3: SIAH1-SBD (substrate-binding domain of E3 ubiquitin-protein ligase SIAH1, residues 89-282), Q8IUQ4-1 T156A (protein)
chain: KVANSVLFPCKYASSGCEITLPHTEKADHEELCEFRPYSCPCPGASCKWQGSLDAVMPHLMHQHKSIATLQGEDIVFLATDINLPGAVDWVMMQSCFGFHFMLVLEKQEKYDGHQQFFAIVQLIGTRKQAENFAYRLELNGHRRRLTWEATPRSIHEGIATAIMNSDCLVFDTSIAQLFAENGNLGINVTISMC
